Data from patent US20250186614A1, “COMPACT DRUG RESPONSIVE DOMAINS FOR REGULATION OF FUNCTION/ABUNDANCE AND DELIVERY OF POLYPEPTIDE PAYLOADS” (OBSIDIAN THERAPEUTICS, INC., priority 2022, published 2025).
Residue numbers refer to the chain shown, from its start. In names and notes the source's numbering stands. Read-outs that look alike come from different tables or passages of the source.

Tests used:
Format in all cases: cell-based
[1] = tested on: Jurkat cells; assay: Tacrolimus dose response of FKBP13-AcGFP-mCherry constructs stably transduced into Jurkat cells, GFP MFI by flow cytometry; set-up: Basal: unit not given here; settings: for EC90 / Tacrolimus FC: Table 14; for Fold Change: Jurkat cells stably transduced, Table 7; for Tacrolimus FC: fold change; for basal AcGFP expression: absence of tacrolimus
Procedure, shortened: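 GFP geometric MFI was read by flow cytometry in mCherry+ cells and curve-fitted against tacrolimus dose. Cells were Jurkat E6-1, lentivirus-transduced with FKBP13-AcGFP-mCherry fusion constructs until 10-25% mCherry-positive on day 5 post-transduction.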

[2] = tested on: Jurkat cells; assay: Sirolimus (rapamycin) dose response of FKBP13 constructs stably transduced into Jurkat cells, flow cytometry; settings: for Fold Change: rapamycin (sirolimus), Jurkat cells stably transduced, Table 8; for EC90 / Rapamycin FC: rapamycin, Table 14; for Rapamycin FC: fold change; for difference between rapamycin and tacrolimus: ratio of EC50 and fold change, Table 9; for EC50 (tacrolimus)/ EC50 (rapamycin): ratio of Table 7 and Table 8 EC50 values; for EC50 (tacrolimus)/ EC50 (rapamycin) / Fold change (tacrolimus)/ Fold change (rapamycin): Jurkat cells; for Fold change (tacrolimus)/ Fold change (rapamycin): ratio of Table 7 and Table 8 fold changes
Protocol: Normalized EC50 values were calculated from the mCherry normalized GFP MFI values, which accounted for any differences in mCherry intensity between samples.

[3] = Example 4: dose response of FKBP constructs 160-255, Ec50, Ec90 and fold change (raw and normalized to mCherry); settings: for FC (fold change): fold change during initial analysis
Protocol: Additional experiments were performed for constructs FKBP-160-292.

[4] = read-out: Tacrolimus EC90 (Norm), tacrolimus, normalized
[5] = read-out: Tacrolimus EC90, tacrolimus
[6] = normalized, read-out: Rapamycin EC90 (Norm)
[7] = FKBP constructs 160-255, not normalized, read-out: EC90
[8] = normalized to mCherry, read-out: EC90 (Norm)

B1: FKBP-153: FKBP13 DRD Q72R, S79W, Q84E, A117W, M54A; SEQ ID NO: 103 (protein)
chain: HCPIKSRKGDVLHAHYTGKLEDGTEFDSSLPRNQPFVFWLGTGEVIKGWDQGLLGMCEGEKRKLVIPSELGYGERGWPPKIPGGATLVFEVELLKIER
modifications: Description of sequence: FKBP13-AcGFP-mCherry Fusion; Construct Name: FKBP-153; FKBP13 DRD in Construct : FKBP13 (mutated to match FKBP12 active site Q72RS79W Q84E A117W) (DRD M54A)
[1]; [4]
  EC90: 383 nM
[1]; [5]
  EC90: 341 nM
[1]; tacrolimus
  Fold Change: 30.07
  Tacrolimus FC: 39.7
[2]
  Fold Change: 4.8
  Rapamycin FC: 6.1
  difference between rapamycin and tacrolimus: largest difference between rapamycin and tacrolimus
  EC50 (tacrolimus)/ EC50 (rapamycin): 0.20
  Fold change (tacrolimus)/ Fold change (rapamycin): 6.26
[2]; read-out: Rapamycin EC90
  EC90: 1520 nM
[2]; [6]
  EC90: 1540 nM

B2: FKBP-155: FKBP13 DRD Q72R, S79W, Q84R, A117W, M54A; SEQ ID NO: 105 (protein)
chain: B1 chain with E44R
modifications: Description of sequence: FKBP13-AcGFP-mCherry Fusion; Construct Name: FKBP-155; FKBP13 DRD in Construct : FKBP13 (mutated to match FKBP12 active site Q72R S79W Q84R A117W) (DRD M54A)
[1]; [4]
  EC90: 947 nM
[1]; [5]
  EC90: 808 nM
[1]; tacrolimus
  Fold Change: 41.68
  Tacrolimus FC: 61.3
[2]
  Fold Change: 5.6
  Rapamycin FC: 7.5
  difference between rapamycin and tacrolimus: largest difference between rapamycin and tacrolimus
  EC50 (tacrolimus)/ EC50 (rapamycin): 0.72
  Fold change (tacrolimus)/ Fold change (rapamycin): 7.44
[2]; read-out: Rapamycin EC90
  EC90: 1140 nM
[2]; [6]
  EC90: 1180 nM

B3: FKBP-195: combinatorial FKBP13 mutant construct of Table 10, carries K135Y (protein)
chain: B1 chain with A14M, W39S, V45R, K95Y
modifications: Description of sequence: Construct Name: FKBP-195; Mutation(s): Q72R Q84E A117W V85R DRD K135Y
[1]; FIG. 39
  Basal: 68.4
  FC: 90
  Peak: 5808
[1]; FIG. 50
  Basal: 75.5
  FC: 61.07
  At 10 uM: 4611
[1]
  basal AcGFP expression: lowest basal expression
[1]; tacrolimus, FIG. 35
  FC: 89.61
  Peak: 4362
[1]; tacrolimus, FIG. 36
  FC: 89.61
  Peak: 4362
[1]; tacrolimus, FIG. 37
  FC: 89.61
  Peak: 4362
[1]; tacrolimus, FIG. 38
  FC: 89.61
  Peak: 4362
[1]; tacrolimus, FIGS. 29 and 30
  FC: 66
[1]; tacrolimus, FIGS. 31 and 32
  FC: 66
[1]; tacrolimus, FIGS. 33 and 34
  FC: 66
[3]; [7]
  EC90: 165 nM
[3]
  FC (fold change): 50.1
[3]; [8]
  EC90: 140 nM

B4: FKBP-228: combinatorial FKBP13 mutant construct of Table 10 (protein)
chain: B1 chain with A14M, W39S, V45R, E97R
modifications: Description of sequence: Construct Name: FKBP-228; Mutation(s): Q72R Q84E A117W V85R DRD E137R
[1]; FIG. 41
  Basal: 112
  FC: 85
  Peak: 8896
[1]; FIG. 42, BR1 (Biorep 1)
  Basal: 103
  FC: 55.15
  At 10 uM: 5680
[1]; FIG. 42, BR2 (Biorep 2)
  Basal: 99.6
  FC: 60.71
  At 10 uM: 6047
[1]
  basal AcGFP expression: lowest basal expression
[3]; [7]
  EC90: 116 nM
[3]
  FC (fold change): 55.1
[3]; [8]
  EC90: 124 nM

B5: FKBP-251: combinatorial FKBP13 mutant construct of Table 10 (protein)
chain: B1 chain with A14M, W39S, V45R, E90F
modifications: Description of sequence: Construct Name: FKBP-251; Mutation(s): Q72R Q84E A117W V85R DRD E130F
[1]; FIG. 40
  Basal: 76
  FC: 100
  Peak: 7406
[1]; FIG. 46, BR1 (Biorep 1)
  Basal: 64
  FC: 97.61
  At 10 uM: 6247
[1]; FIG. 46, BR2 (Biorep 2)
  Basal: 46.1
  FC: 76.79
  At 10 uM: 3540
[1]
  basal AcGFP expression: lowest basal expression
[1]; tacrolimus, FIG. 35
  FC: 92.03
  Peak: 5078
[1]; tacrolimus, FIG. 36
  FC: 92.03
  Peak: 5078
[1]; tacrolimus, FIG. 37
  FC: 92.03
  Peak: 5078
[1]; tacrolimus, FIG. 38
  FC: 92.03
  Peak: 5078
[3]; [7]
  EC90: 104 nM
[3]
  FC (fold change): 97.5
[3]; [8]
  EC90: 113 nM

B6: FKBP-215: combinatorial FKBP13 mutant construct of Table 10, carries M54A (protein)
chain: B1 chain with P3R, W39S, E44G, V45R, K95Y
modifications: Description of sequence: Construct Name: FKBP-215; Mutation(s): Q72R Q84G A117W V85R DRD P43R M54A K135Y
[1]; FIG. 48, BR1 (Biorep 1)
  Basal: 65
  FC: 51.05
  At 10 uM: 3318
[1]; FIG. 48, BR2 (Biorep 2)
  Basal: 59.4
  FC: 53.30
  At 10 uM: 3166
[1]
  basal AcGFP expression: lowest basal AcGFP expression
[3]; [7]
  EC90: 388 nM
[3]
  FC (fold change): 51.0
[3]; [8]
  EC90: 390 nM

B7: FKBP-197: FKBP13 DRD-AcGFP construct of Table 10 (protein)
chain: B1 chain with A14M, W39S, V45R, E90R
modifications: Description of sequence: Construct Name: FKBP-197; Mutation(s): Q72R Q84E A117W V85R DRD E130R
[1]; FIG. 46, BR1 (Biorep 1)
  Basal: 70.7
  FC: 101.12
  At 10 uM: 7149
[1]; FIG. 46, BR2 (Biorep 2)
  Basal: 55.2
  FC: 72.21
  At 10 uM: 3986
[3]; [7]
  EC90: 1090 nM
[3]
  FC (fold change): 101.1
[3]; [8]
  EC90: 1190 nM

B8: FKBP-201: FKBP13 DRD-AcGFP construct of Table 10 (protein)
chain: B1 chain with H13L, A14M, W39S, V45R
modifications: Description of sequence: Construct Name: FKBP-201; Mutation(s): Q72R Q84E A117W V85R DRD H53L
[3]; [7]
  EC90: 144 nM
[3]
  FC (fold change): 33.1
[3]; [8]
  EC90: 153 nM

B9: FKBP-202 (protein)
chain: B1 chain with G9S, W39S, V45R
modifications: Description of sequence: Construct Name: FKBP-202; Mutation(s): Q72R Q84E A117W V85R DRD M54A G49S
[3]; [7]
  EC90: 1010 nM
[3]
  FC (fold change): 46.2
[3]; [8]
  EC90: 1060 nM
